Data on 3 substances can be found in patent publication US20170369576A1.

For assay [1], the target named is HIV-1 envelope glycoprotein of isolate JRCSF (R5), on pseudotype virus (HIV-1 (JRCSF)). The experiment in a line: cell-based or functional assay.
Assay [2] concerns the target HIV-1 envelope glycoprotein of isolate HXB2 (X4), on pseudotype virus (HIV-1 (HXB2)) (UniProt P04578). The assay is described as follows: cell-based or functional assay.
For assay [3], the target named is HIV-1 envelope glycoprotein of isolate 92TH594 (R5/X4), on pseudotype virus (HIV-1 (92TH594)). The assay is described as follows: cell-based or functional assay.
For assay [4], the target named is chimpanzee CD4 on PBMC (chimpanzee) (UniProt P16004). The assay is described as follows: FACS of chimp X301 PBMC, sequential staining: 1st B4 binding, 2nd Leu3a exposure; competitor B4 prebound.
The target is the same in assay [5]. The assay is described as follows: FACS of chimp X301 PBMC stained with Leu3a-PE only.
Assay [6] shares this target. The assay is described as follows: FACS of chimp X282 PBMC, sequential staining: 1st Leu3a binding, 2nd B4 exposure.
Assay [7] has the same target. The experiment in a line: FACS of chimp X301 PBMC, sequential staining: 1st Leu3a binding, 2nd B4 exposure.
The target is the same in assay [8]. The assay is described as follows: FACS of chimp X282 PBMC, sequential staining: 1st B4 binding, 2nd Leu3a exposure; competitor B4 prebound.
The target is the same in assay [9]. The assay is described as follows: FACS of chimp X282 PBMC stained with Leu3a-PE only.

Chain of chimpanzee CD4 on PBMC (chimpanzee) (P16004 26-458): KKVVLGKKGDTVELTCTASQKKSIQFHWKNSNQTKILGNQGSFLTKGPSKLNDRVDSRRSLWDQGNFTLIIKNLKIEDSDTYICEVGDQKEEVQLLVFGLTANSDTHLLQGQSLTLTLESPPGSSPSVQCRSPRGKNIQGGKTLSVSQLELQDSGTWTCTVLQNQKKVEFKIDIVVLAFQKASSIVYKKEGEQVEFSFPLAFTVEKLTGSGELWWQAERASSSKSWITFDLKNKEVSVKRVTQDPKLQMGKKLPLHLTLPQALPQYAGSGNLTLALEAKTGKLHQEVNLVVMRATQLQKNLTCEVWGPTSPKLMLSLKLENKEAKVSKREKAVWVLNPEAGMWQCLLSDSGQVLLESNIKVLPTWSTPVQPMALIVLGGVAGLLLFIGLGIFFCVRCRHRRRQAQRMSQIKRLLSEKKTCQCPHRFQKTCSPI

Turning to monoclonal neutralizing antibody 2G12, the IC50 of HIV entry inhibition, pseudotype virus JRCSF (R5), U87-CD4+/CCR5+/CXCR4+ cells in assay [1] amounted to 0.8 µg/mL. The same substance displayed an IC50 of HIV entry inhibition, pseudotype virus HXB2 (X4), U87-CD4+/CCR5+/CXCR4+ cells in [2] of 0.5 µg/mL. The IC50 of HIV entry inhibition, pseudotype virus 92TH594 (R5/X4), U87-CD4+/CCR5+/CXCR4+ cells in [3] stood at 1.3 µg/mL.

With monoclonal neutralizing antibody 2F5, the IC50 of HIV entry inhibition, pseudotype virus JRCSF (R5), U87-CD4+/CCR5+/CXCR4+ cells in [1] came out at 4 µg/mL. Besides, the IC50 of HIV entry inhibition, pseudotype virus HXB2 (X4), U87-CD4+/CCR5+/CXCR4+ cells in [2] is 0.07 µg/mL. Moreover, in [3], the IC50 of HIV entry inhibition, pseudotype virus 92TH594 (R5/X4), U87-CD4+/CCR5+/CXCR4+ cells came to 3 µg/mL.

As for anti-CD4 monoclonal antibody Leu3a, the percent positive PBMC (Leu3a+ B4+) in assay [4] was determined as 3%; in [8], 1.2%. In addition, the percent positive PBMC (Leu3a+ B4-) stood at 0% in [4], 0.1% in [6], 0.3% in assay [7] and 0% in [8]. Also, the percent positive PBMC (single label control, Leu3a+) was determined as 44% in [5] and 25.5% in assay [9].
